Data on five molecules can be found in publication PMC5191963 (Hepatology (Baltimore, Md.), 2016).

Holding throughout (experiment): BLI
The target of experiment [1] is T1, GST-tagged AIM2 (Invitrogen) (UniProt O14862 1-343).
T1 sequence (looked up): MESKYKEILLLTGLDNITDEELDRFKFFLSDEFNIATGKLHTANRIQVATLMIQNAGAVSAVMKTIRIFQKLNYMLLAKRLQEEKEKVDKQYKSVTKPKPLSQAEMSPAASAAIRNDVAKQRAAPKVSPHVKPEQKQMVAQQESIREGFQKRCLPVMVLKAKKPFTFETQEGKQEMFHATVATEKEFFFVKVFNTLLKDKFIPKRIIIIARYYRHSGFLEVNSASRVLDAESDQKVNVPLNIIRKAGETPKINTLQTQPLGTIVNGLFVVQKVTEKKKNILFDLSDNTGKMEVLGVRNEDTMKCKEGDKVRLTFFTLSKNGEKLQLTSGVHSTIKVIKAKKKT

Experiment [2] has as its target T1, GST-tagged AIM2 (Invitrogen). The source holds these as a separate data set.
Experiment [3] shares this target. This is another data set of the same source.
Experiment [4] shares this target. The source holds these as a separate data set.
Experiment [5] shares this target. The source holds these as a separate data set.

Where a chain is given by its changes, count along the chain named. Names may count otherwise. Like-named read-outs stand apart in the source and are kept apart here.

B1: Recombinant HMGB1 (disulfide HMGB1, not treated with DTT) (natural protein, human, UniProt P09429 1-215, looked up)
chain: MGKGDPKKPRGKMSSYAFFVQTCREEHKKKHPDASVNFSEFSKKCSERWKTMSAKEKGKFEDMAKADKARYEREMKTYIPPKGETKKKFKDPNAPKRPPSAFFLFCSEYRPKIKGEHPGLSIGDVAKKLGEMWNNTAADDKQPYEKKAAKLKEKYEKDIAAYRAKGKPDAAKKGVVKAEKSKKKKEEEEDEEDEEDEEEEEDEEDEDEEEDDDDE
modifications: disulfide bond between cysteines 23 and 45 (the paper calls the protein without DTT disulfide HMGB1)
With B1, the Kd in experiment [1] turned out to be 25 nM; in experiment [2], 23 nM; in experiment [3], 20 nM; in experiment [4] it was 8 nM. Moreover, the koff stood at 0.00033 s⁻¹ in experiment [1], 0.00034 s⁻¹ in experiment [2], 0.00034 s⁻¹ in experiment [3] and 0.00014 s⁻¹ in experiment [4]. Also, the on-rate (kon) in experiment [1] turned out to be 13000 M⁻¹ s⁻¹; in experiment [2], 14000 M⁻¹ s⁻¹; in experiment [3] it was 17000 M⁻¹ s⁻¹; in experiment [4], 17000 M⁻¹ s⁻¹.

B2: Recombinant HMGB1, fully reduced all-thiol form (5 mM DTT) (natural protein, human, UniProt P09429 1-215, looked up)
chain: B1 chain
As for B2, in experiment [5], the Kd came to 13 nM, the off-rate (koff) worked out at 0.00038 s⁻¹ and the kon worked out at 30000 M⁻¹ s⁻¹.

B3: Recombinant HMGB1(C23S) (natural protein, human, UniProt P09429 1-215, looked up)
chain: B1 chain with C23S
B3: in experiment [2], binding was put at a Kd of 12 nM, the koff came to 0.0003 s⁻¹ and the kon came out at 25000 M⁻¹ s⁻¹.

B4: Recombinant HMGB1(C45S) (natural protein, human, UniProt P09429 1-215, looked up)
chain: B1 chain with C45S
In experiment [2], B4 had a Kd of 13 nM, a koff of 0.00036 s⁻¹ and a kon of 27000 M⁻¹ s⁻¹.

B5: Recombinant HMGB1 A box (disulfide form, not treated with DTT) (domain or fragment)
chain: MGKGDPKKPRGKMSSYAFFVQTCREEHKKKHPDASVNFSEFSKKCSERWKTMSAKEKGKFEDMAKADKARYEREMKTYI
modifications: disulfide form (the paper calls the A box without DTT its disulfide form)
In the case of B5, in experiment [2], the affinity, expressed as Kd, was 41 nM; the koff was 0.00261 s⁻¹; the kon worked out at 64000 M⁻¹ s⁻¹.
